Earlier results as cited in PMC5874834.

Molecular target: VEGF165 VEGF165 (Homo sapiens) (UniProt P15692)
UniProt P15692, sequence (P15692 207-321, chain 1 of 2): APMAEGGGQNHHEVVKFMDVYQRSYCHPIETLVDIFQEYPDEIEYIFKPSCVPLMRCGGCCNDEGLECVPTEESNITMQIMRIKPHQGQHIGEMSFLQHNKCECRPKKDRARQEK
UniProt P15692, sequence (P15692 346-395, chain 2 of 2): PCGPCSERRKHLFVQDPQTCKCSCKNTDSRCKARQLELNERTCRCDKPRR

- Kd: 1.6 pM
Substance: Brolucizumab scFv
